Article PMC9936548, “Repertoire of Computationally Designed Peroxygenases for Enantiodivergent C–H Oxyfunctionalization Reactions” (Journal of the American Chemical Society, 2023)

Substrate: CCc1ccccc1
Assay: purified protein
Type: biochemical, Cyclocybe aegerita
[1] = 2 mM H2O2, 100 mM phosphate pH 7.0, design d2
[2] = 2 mM H2O2, 100 mM phosphate pH 7.0, design d4

Row | Protein | Km [1] [µM] | kcat [1] [s⁻¹] | kcat/Km [1] [M⁻¹ s⁻¹] | Km [2] [µM] | kcat [2] [s⁻¹] | kcat/Km [2] [M⁻¹ s⁻¹]
1 | PaDa-I (evolved AaeUPO) (Cyclocybe aegerita; A359P/F242L/F354L/G284I/I291V/L110F/T235L/V100A/V118I/V287I) (protein, laboratory-evolved secretion mutant PaDa-I; mature, no tag; evolved signal peptide (F12Y/A14V/R15G/A21D in leader); heme and structural Mg; expressed in Pichia pastoris, purified to homogeneity) EPGLPPGPLENSSAKLVNDEAHPWKPLRPGDIRGPCPGLNTLASHGYLPRNGVATPAQIINAVQEGFNFDNQAAIFATYAAHLVDGNLITDLLSIGRKTRLTGPDPPPPASVGGLNEHGTFEGDASMTRGDAFFGNNHDFNETLFEQLVDYSNRFGGGKYNLTVAGELRFKRIQDSIATNPNFSFVDFRFFLAYGETTLPANLFVDGRRDDGQLDMDAARSFFQFSRMPDDFFRAPSPRSITGIEVVVQAHPMQPGRNVGKINSYTVDPTSSDFSTPCLMYEKFVNITVKSLYPNPTVQLRKALNTNLDFLFQGVPAGCTQVFPYGRD | 560 ± 200 | 570 ± 119 | 1.02e+06 | – | – | –
2 | PaDa-I (evolved AaeUPO) (Cyclocybe aegerita; A120I/F112L/F242L/F354L/G284N/I291V/L110F/V100A/V118I/V287T) (protein, laboratory-evolved secretion mutant PaDa-I; mature, no tag; evolved signal peptide (F12Y/A14V/R15G/A21D in leader); heme and structural Mg; expressed in Pichia pastoris, purified to homogeneity) EPGLPPGPLENSSAKLVNDEAHPWKPLRPGDIRGPCPGLNTLASHGYLPRNGVATPAQIINAVQEGFNLDNQAAIFITYAAHLVDGNLITDLLSIGRKTRLTGPDPPPPASVGGLNEHGTFEGDASMTRGDAFFGNNHDFNETLFEQLVDYSNRFGGGKYNLTVAGELRFKRIQDSIATNPNFSFVDFRFFTAYGETTLPANLFVDGRRDDGQLDMDAARSFFQFSRMPDDFFRAPSPRSNTGTEVVVQAHPMQPGRNVGKINSYTVDPTSSDFSTPCLMYEKFVNITVKSLYPNPTVQLRKALNTNLDFLFQGVAAGCTQVFPYGRD | – | – | – | 560 ± 200 | 570 ± 119 | 1.02e+06
